Numbering of substitutions follows the chain as printed.
T1: HCoV-NL63 spike protein (Sino Biological 40604-V08B) (HCoV-NL63, UniProt Q6Q1S2 19-1296)
T1 sequence: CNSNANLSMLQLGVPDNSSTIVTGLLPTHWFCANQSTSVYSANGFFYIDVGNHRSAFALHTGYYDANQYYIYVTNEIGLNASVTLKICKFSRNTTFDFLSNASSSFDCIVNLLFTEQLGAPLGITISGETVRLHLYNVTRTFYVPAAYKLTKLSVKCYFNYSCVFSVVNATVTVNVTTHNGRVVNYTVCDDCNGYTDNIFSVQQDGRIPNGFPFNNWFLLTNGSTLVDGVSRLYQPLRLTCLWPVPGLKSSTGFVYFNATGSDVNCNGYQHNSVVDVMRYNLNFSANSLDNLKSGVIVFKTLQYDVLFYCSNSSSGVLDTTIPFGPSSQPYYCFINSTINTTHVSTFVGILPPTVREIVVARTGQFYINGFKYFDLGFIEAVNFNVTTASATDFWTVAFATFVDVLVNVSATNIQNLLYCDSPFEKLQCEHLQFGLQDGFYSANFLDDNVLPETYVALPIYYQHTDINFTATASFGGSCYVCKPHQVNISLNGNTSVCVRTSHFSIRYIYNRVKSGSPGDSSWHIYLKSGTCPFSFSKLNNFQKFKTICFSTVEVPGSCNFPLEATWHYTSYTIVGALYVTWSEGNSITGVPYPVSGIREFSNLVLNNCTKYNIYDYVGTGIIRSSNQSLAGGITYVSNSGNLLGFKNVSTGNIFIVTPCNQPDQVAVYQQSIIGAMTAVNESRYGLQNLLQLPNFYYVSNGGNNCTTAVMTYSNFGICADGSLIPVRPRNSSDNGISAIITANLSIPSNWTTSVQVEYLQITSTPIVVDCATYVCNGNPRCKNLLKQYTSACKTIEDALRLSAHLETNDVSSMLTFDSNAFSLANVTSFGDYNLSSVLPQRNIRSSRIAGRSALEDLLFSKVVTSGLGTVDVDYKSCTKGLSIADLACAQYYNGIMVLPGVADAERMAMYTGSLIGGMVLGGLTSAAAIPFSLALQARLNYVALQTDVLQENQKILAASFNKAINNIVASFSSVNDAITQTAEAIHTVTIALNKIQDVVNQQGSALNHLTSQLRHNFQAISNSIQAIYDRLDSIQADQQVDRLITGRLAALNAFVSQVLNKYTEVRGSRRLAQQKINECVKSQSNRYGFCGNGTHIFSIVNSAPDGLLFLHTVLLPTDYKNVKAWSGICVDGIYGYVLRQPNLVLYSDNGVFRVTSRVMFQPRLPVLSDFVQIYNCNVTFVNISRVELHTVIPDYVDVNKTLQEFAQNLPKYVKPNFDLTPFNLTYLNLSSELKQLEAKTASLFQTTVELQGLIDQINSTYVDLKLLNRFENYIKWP

T2: HCoV-229E spike protein (Sino Biological 40605-V08B) (HCoV-229E, UniProt P15423 16-1115)
T2 sequence: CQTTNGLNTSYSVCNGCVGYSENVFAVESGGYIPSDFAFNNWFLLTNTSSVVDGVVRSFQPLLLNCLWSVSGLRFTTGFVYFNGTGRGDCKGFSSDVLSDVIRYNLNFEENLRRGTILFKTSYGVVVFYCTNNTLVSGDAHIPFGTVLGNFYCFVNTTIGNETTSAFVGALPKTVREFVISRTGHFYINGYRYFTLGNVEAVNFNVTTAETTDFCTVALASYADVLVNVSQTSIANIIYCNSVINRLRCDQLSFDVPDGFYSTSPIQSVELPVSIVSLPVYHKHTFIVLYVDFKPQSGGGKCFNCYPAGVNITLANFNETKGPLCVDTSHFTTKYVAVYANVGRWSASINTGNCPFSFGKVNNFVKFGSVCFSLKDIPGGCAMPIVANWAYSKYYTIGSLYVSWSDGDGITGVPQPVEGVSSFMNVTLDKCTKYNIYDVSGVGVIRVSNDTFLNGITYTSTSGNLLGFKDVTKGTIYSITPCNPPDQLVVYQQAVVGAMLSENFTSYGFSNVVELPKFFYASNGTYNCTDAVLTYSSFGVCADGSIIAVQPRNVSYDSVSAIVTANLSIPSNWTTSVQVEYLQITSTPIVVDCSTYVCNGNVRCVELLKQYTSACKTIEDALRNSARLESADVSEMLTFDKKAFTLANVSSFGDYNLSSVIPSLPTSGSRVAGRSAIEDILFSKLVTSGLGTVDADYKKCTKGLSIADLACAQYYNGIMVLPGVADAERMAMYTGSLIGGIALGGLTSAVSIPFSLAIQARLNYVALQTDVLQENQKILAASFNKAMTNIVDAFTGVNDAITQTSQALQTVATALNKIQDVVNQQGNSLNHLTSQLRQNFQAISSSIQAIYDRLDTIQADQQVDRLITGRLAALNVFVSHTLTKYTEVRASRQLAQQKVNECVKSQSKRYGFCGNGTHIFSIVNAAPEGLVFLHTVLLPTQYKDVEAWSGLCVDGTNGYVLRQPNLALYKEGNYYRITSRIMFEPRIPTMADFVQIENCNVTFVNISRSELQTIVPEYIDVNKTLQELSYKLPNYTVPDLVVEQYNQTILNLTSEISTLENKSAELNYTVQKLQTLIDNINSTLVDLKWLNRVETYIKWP

B1: COV49-51 (antibody, V domains shown)
VH: QVQLVQSGAEAKKPGASVKVSCKASGYSFTSYHMHWVRQAPGQGLEWMGIINPNGGTTTYAPKFQGRVTMTSDTSTSTVYMELTSLRSEDTAVYYCSTVVGALWGQGTLVIVSS
VL: IVLTQSPGTLSLSPGERATLSCRASQSVRSNNYLAWYQQKPGQAPRLLIYGASTRATGIPDRFSGSGSGTDFTLTISRLEPEDFAVYYCQQYGSSPLTFGGGTRVEIK
B2: COV44-56 (antibody, V domains shown)
VH: QVLLVQSGAEVKKPGASVMVSCKASGYILNNYYMHWVRQAPGHGLEWMGIINPSGDGTRYAQKFQGRVTMTRDSSTTSIHMELRRVTSEDTAVYYCARGGSQSAFDMWGQGTVVLVSS
VL: DIVMTQSPRSLPVTPGESASISCRSSQSLLQKNGYNYLDWYVQKPGQSPQLLIYLGSYRASGVPDRISGSGSGTDFTLKINRVEAEDVGVYYCLQAQQAPPLYTFGQGTKLQIE
B3: COV72-37 (antibody, V domains shown)
VH: QVQLVQSGAEVKKPAASVKVSCKASGDTFSSHYMHWVRQAPGQGPEWMGIINPSGSGTAYGQKFQGRLTMTRDTSTSTVYMELSSLTSDDTAVYYCGGGSGGLFAYWGQGTLVTVSS
VL: EIVLTQSPGTLSLSPGERATLSCRASQIVRSNYLAWYQQKPGQAPRLLIYGASSRATGTPDRFSGGGSGTDFTLTINRLEPEDFAVYYCLQYDSSPPTYIFGQGTKLEIK
B4: COV93-03 (antibody, V domains shown)
VH: QLQLVQSGAEVKKPGASVKLSCKASGNTFTSHYIHWVRQAPGQGPEWMGIINPSGSGTRYAQKFQGRVTMTRDTSTSTVYMELVSLRFEDTAVYYCAGDYYLDYWGQGTLVTVSS
VL: EFVLTQSPGTLSLSPGERATLSCRASQSVTSNYLAWYQQKPGQAPRLLIFGASSRATGIPDRFSGSGSGTDFTLTISRLEPEDFAVYYCQQYGSSPPMYTFGPGTKVEIK
B5: COV49-03 (antibody, V domains shown)
VH: DVQLLESGGGLVQPGGSRRLSCAASGFTFSNYAMSWVRQAPGKGLEWVSAISGGGATTYYADSVQGRFTMSRDNSNNTLYLQMSSLRAEDTAVYYCTKGAFYDILSSIIVEGDYWGQGTLVTVSS
VL: DVVLTQSPLSLPITLGQPASISCRSSQSLVFSDGNTYLNWFQQRPGQSPRRLIYKVSNRDSGVPDRFSGSGSGTDFTLKISRVEAEDVGVYYCMQGTHWLSITFGQGTRLEIK
B6: COV30-14 (antibody, V domains shown)
VH: QVQLVQSGAEVKKPGASVKVSCQTSGYTFTSYYMHWVRQAPGQGLEWMGLITPSGDDTYYAQRFQGRVTMTRDTSTSPTYMELSSLTSEDTAVYYCAKMSRAGGFDVWGQGTLVTVSS
VL: EVVLTQSPGTLSLSPGERATLSCRASQSITGRYLAWYQQKPGQAPRLLMYGESSRVTGIPDRFSGGGSGTDFTLTISRLEPEDFAVYYCQHFASSPPTYTFGQGTKLEIR
B7: COV44-54 (antibody, V domains shown)
VH: QVQLVQSGAEVKKPGASVRVSCKTSGYTFTNYYMTWVRQAPGQGLQWVGLISPSAGYTAYAQMFQGRVTMTSDTSTSTVYMQLSSLRSEDTAIYYCTRVAVAGPNDYWGQGTLVTVSS
VL: EIVLTQSPGTLSLSPGERATLSCRASQSISGSYLAWYQQKPGQAPRLVIYAASSRATGIPDRFSGSGSGTDFILTISRLEAEDFAVYFCQHYRSSPPLWTFGQGTKVEIR
B8: COV93-08 (antibody, V domains shown)
VH: QVQLRESGPGVVKPSGTLSLTCTVSGDFINNNRWWTWVRQSPGKGLEWIGEIYHSGSTNYNPSLKGRVTISVDKSKNHFSLKLTSVTAADTAMYYCARGGYCTVGDCHDNWFDPWGQGTLVTVSS
VL: DIQMTQSPSTLSASVGDRVTITCRASQNINSWLAWYQQKPGKAPKVLIYKASSLESGVPSRFSGSVSGTEFTLTISSLQPDDFATYYCQQYSTLSWTFGQGTKVDIK
B9: COV93-38 (antibody, V domains shown)
VH: B8 VH with R5Q, T23A, I29S, Y53H, H54Q, G66S, V68I, H78Q, M93V, T103S
VL: B8 VL with N28T, T93S
B10: COV93-17 (antibody, V domains shown)
VH: EVQLVQSGAEVKKPGESLRISCRGSGYSFTNYWISWVRQMPGKGLEWMGRIDPTDSYTNYSPSFQGHVTISTDKSISTAYLQWSSLKASDTAMYYCARHKNGMIHEYDYWGQGILVTVSS
VL: DIQLTQSPSTLSASVGDRVTITCRASQSIRSWLAWYQQKPGKAPKLLIYRASSLESGVPSRFSGSGSGTEFTLTISSLQPDDFATYYCQQYGTFGPGTKVDIR

molecular target: T1, HCoV-NL63 spike protein (Sino …); assay: bead flow cytometry, AUC minus CD4

Binder | binding result
B1 | no binding (tested: 200 µg/mL)
B2 | no binding (tested: 200 µg/mL)
B3 | no binding (tested: 200 µg/mL)
B4 | no binding (tested: 200 µg/mL)
B5 | no binding (tested: 200 µg/mL)
B6 | no binding (tested: 200 µg/mL)
B7 | no binding (tested: 200 µg/mL)
B8 | no binding (tested: 200 µg/mL)
B9 | no binding (tested: 200 µg/mL)
B10 | no binding (tested: 200 µg/mL)

molecular target: T2, HCoV-229E spike protein (Sino …); assay: bead flow cytometry, AUC minus CD4

Binder | binding result
B1 | no binding (tested: 200 µg/mL)
B2 | no binding (tested: 200 µg/mL)
B3 | no binding (tested: 200 µg/mL)
B4 | no binding (tested: 200 µg/mL)
B5 | no binding (tested: 200 µg/mL)
B6 | no binding (tested: 200 µg/mL)
B7 | no binding (tested: 200 µg/mL)
B8 | no binding (tested: 200 µg/mL)
B9 | no binding (tested: 200 µg/mL)
B10 | no binding (tested: 200 µg/mL)

molecular target: SARS-CoV-2 spike receptor binding domain (RBD), recombinant (SARS-CoV-2, UniProt P0DTC2 319-541); assay: bead flow cytometry, AUC minus CD4

Binder | binding result
B1 | no binding (tested: 200 µg/mL)
B2 | no binding (tested: 200 µg/mL)
B4 | no binding (tested: 200 µg/mL)
B5 | no binding (tested: 200 µg/mL)
B7 | no binding (tested: 200 µg/mL)
B8 | no binding (tested: 200 µg/mL)
B9 | no binding (tested: 200 µg/mL)
B10 | no binding (tested: 200 µg/mL)

molecular target: SARS-CoV-2 spike N-terminal domain (NTD), recombinant (SARS-CoV-2, UniProt P0DTC2 14-305); assay: bead flow cytometry, AUC minus CD4

Binder | binding result
B1 | no binding (tested: 200 µg/mL)
B2 | no binding (tested: 200 µg/mL)
B3 | no binding (tested: 200 µg/mL)
B4 | no binding (tested: 200 µg/mL)
B5 | no binding (tested: 200 µg/mL)
B6 | no binding (tested: 200 µg/mL)
B7 | no binding (tested: 200 µg/mL)
B8 | no binding (tested: 200 µg/mL)
B9 | no binding (tested: 200 µg/mL)
B10 | no binding (tested: 200 µg/mL)
